Measurements taken from publication PMC3630169.

Legend:
[1] = biological target: outer surface protein E (OspE) from B. burgdorferi sensu stricto strain N40 (B. burgdorferi sensu stricto strain N40); experiment: radioligand binding; OspE, FhbA or Tuf coated on microtitre plates (5–25 µg/ml in PBS, 4°C, 12 h), blocked with 0.5% BSA/PBS; ^125I-FH19-20 (50,000 cpm/well) mixed with serial dilutions of FH19-20 mutants; 37°C, 60 min; IC50 from fitted inhibition curves, three experiments in triplicate
[2] = biological target: FhbA from B. hermsii strain MAN (B. hermsii strain MAN); experiment: as above

Substance	IC50mut/IC50wt [1]	IC50mut/IC50wt [2]
FH19-20 R1203A (from UniProt P08603 1107-1231) (domain or fragment)	4.7	41.9
FH19-20 W1157L (from UniProt P08603 1107-1231) (domain or fragment)	1.4	1.4
FH19-20 W1183L (from UniProt P08603 1107-1231) (domain or fragment)	97.1	66.4
FH19-20 L1189R (from UniProt P08603 1107-1231) (domain or fragment)	2.9	4.9
FH19-20 K1188A (from UniProt P08603 1107-1231) (domain or fragment)	0.8	1.6
FH19-20 Q1139A (from UniProt P08603 1107-1231) (domain or fragment)	1.2	1.1
FH19-20 R1210A (from UniProt P08603 1107-1231) (domain or fragment)	1.3	1.8
FH19-20 T1184R (from UniProt P08603 1107-1231) (domain or fragment)	1.2	1.7
FH19-20 K1186A (from UniProt P08603 1107-1231) (domain or fragment)	0.2	0.5
FH19-20 R1206A (from UniProt P08603 1107-1231) (domain or fragment)	3.4	3.1
FH19-20 R1182A (from UniProt P08603 1107-1231) (domain or fragment)	3	18
FH19-20 R1215Q (from UniProt P08603 1107-1231) (domain or fragment)	33.8	2
FH19-20 D1119G (from UniProt P08603 1107-1231) (domain or fragment)	0.6	0.9
FH19-20 E1198A (from UniProt P08603 1107-1231) (domain or fragment)	24.7	25.1
